Here are results for eight molecules from patent US20240059794A1 (PARASOL BIOTECH, published 2024).

In this test the target is T1, GUCY2C protein (Ser24-Gln430) (Homo sapiens (Human), UniProt P25092 24-430).
T1 construct: Synthesized by GenScript and used as the immunogen; No tags are stated; also called extracellular region of the artificially synthesized GUCY2C protein; Protein GUCY2C
The experiment in a line: Screening ELISA: culture supernatant of the IPTG-induced HB2151 clone on a plate coated with 1 ug/ml GUCY2C; detection with peroxidase goat anti-alpaca IgG (VHH domain), TMB, absorbance at 450 nm; VHH concentration not given; negative control (NC) bar in the same chart is labelled 0.15. The method, then: The phages of 3 rounds screening were transfected into HB2151 bacteria, and 100 ul of infected HB2151 bacteria were taken to scrape on the surface of 2×YT-AG solid culture dish. 96 single clones were picked and added into 2×YT medium, then cultured in a 96 deep-well plate. 0.8 mM IPTG was added into the medium when the bacteria grew to logarithmic phase and were cultured overnight at 25° C. The supernatant of medium was added to the 1 ug/ml GUCY2C coated ELISA plate which was contained in two control wells. After incubating for 2 hours at 37° C., the plate was washed 3 times with PBST. Peroxidase AffiniPure Goat anti-Alpaca IgG, VHH domain (Jackson Immumo Research) was added into the Elisa plate, incubated at 37° C. for 1 hour and washed 3 times with PBST. TMB solution was added for 20 minutes, then the reaction was stopped with 2M sulfuric acid. The absorbance value at 450 nm wavelength was read on the microplate reader (FIG. 2). Clones with an absorbance value 2.1 times higher than the negative control were considered positive clones and were sent to sequencing.
In general terms: In an ELISA, binding on a coated surface is turned into a signal by an enzyme label.

T1 sequence (P25092 24-430): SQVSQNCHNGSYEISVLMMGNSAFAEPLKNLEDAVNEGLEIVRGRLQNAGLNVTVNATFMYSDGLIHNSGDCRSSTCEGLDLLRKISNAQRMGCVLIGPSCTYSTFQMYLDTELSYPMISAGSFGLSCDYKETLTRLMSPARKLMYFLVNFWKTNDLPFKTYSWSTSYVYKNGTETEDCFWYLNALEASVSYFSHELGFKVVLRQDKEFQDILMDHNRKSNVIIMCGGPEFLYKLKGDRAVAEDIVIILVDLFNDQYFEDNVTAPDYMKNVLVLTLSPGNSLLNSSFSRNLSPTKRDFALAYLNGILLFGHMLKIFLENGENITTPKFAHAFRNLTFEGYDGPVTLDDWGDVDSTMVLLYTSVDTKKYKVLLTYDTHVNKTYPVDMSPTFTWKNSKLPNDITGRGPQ

B1: C12 (VHH)
VHH: QVQLVESGGGLVQPGGSLRLSCAASSNIFRAYGMDWYRQAPGKQREMVATIWLSGRSTYTDAVKGRFTISRDNAKNTVYLQMNNLKPEDTAVYYCNAGPTTASSVRQYWGQGTQVTVSS
notes: Alpaca VHH tested as culture supernatant of IPTG-induced HB2151 bacteria (pComb3XSS phagemid); also called clone C12
In turn, B1 yielded an OD450 of 2.

B2: C21 (VHH)
VHH: QVQLVESGGGLVQPGGSLRLSCTSSSNIFRIYGMDWYRQAPGKQREIVATIYLSGRTTYSDAVKGRFTISRDNAKDTVYLQMNSLKPEDTAVYYCNAGEPTASSVRQYWGQGTQVTVSS
notes: Alpaca VHH tested as culture supernatant of IPTG-induced HB2151 bacteria (pComb3XSS phagemid); also called clone C21
B2 showed an OD450 of 0.42.

B3: C15 (VHH)
VHH: QVQLVESGGGVVQPGGSLRLSCAASSNIFRAYGMDWYRQAPGKQREMVATIWLSGRSTYTDAVQGRFTISRDNAKNTVYLQMNNLKPEDTAVYYCNAGPTTASSVRQYWGQGTQVTVSS
notes: Alpaca VHH tested as culture supernatant of IPTG-induced HB2151 bacteria (pComb3XSS phagemid); also called clone C15
The molecule B3 yielded an OD450 of 1.

B4: C27 (VHH)
VHH: EVQLVESGGGLVQPGGSLRLSCTSSSNIFKIYGMDWYRQAPGKQREIVATIYLSGRTTYSDAVKGRFTISRDNAKNTVYLQMNTLKPEDTAVYYCNAGETTASSVRQYWGQGTQVTVSS
notes: Alpaca VHH tested as culture supernatant of IPTG-induced HB2151 bacteria (pComb3XSS phagemid); also called clone C27
Turning to B4, the OD450 is 1.47.

B5: C08 (VHH)
VHH: EVQLVESGGGLVQPGGSLRLSCAASSNIFRAYGMGWYRQAPGKQREMVAAIWLSGRTEYADAVQGRFTVSRDNAKNTVYLQMNSLKPEDTAVYYCNAGPPTATSVRQYWGQGTQVTVSS
notes: Alpaca VHH tested as culture supernatant of IPTG-induced HB2151 bacteria (pComb3XSS phagemid); also called C8; clone C08
Consider B5, for which the OD450 was determined as 0.86.

B6: C13 (VHH)
VHH: QVQLVESGGGLVQPGGSLRLSCAASSNIFRAYGMDWYRQAPGKQREMVATIWLSGRTTYTDAVKGRFTISRDNAKNTVYLQMNSLKPEDTAVYYCNAGAPTASSGRQYWGQGTQVTVSS
notes: Alpaca VHH tested as culture supernatant of IPTG-induced HB2151 bacteria (pComb3XSS phagemid); also called clone C13
With B6, the OD450 is 0.8.

B7: C30 (VHH)
VHH: QVQLVESGGGLVQPGGSLRLSCAASGSIFRVYGMDWYRQAPGKQRELVASIFLSGRTNYADAVKGRFTLSRDNAKNTMYLQMNSLKPEDTAVYYCNAGETTASSVRQYWGQGTQVTVSS
notes: Alpaca VHH tested as culture supernatant of IPTG-induced HB2151 bacteria (pComb3XSS phagemid); also called clone C30
In the case of B7, the OD450 was 0.93.

B8: C31 (VHH)
VHH: AVQLVESGGGLVQPGGSLRLSCAASGSIFRVYGMDWYRQAPGKQRELVASIWLSGRTNYADAVKGRFTLSRDNAKNTMYLQMNSLKPEDTAVYYCNAGETTASSVRQYWGQGTQVTISS
notes: Alpaca VHH tested as culture supernatant of IPTG-induced HB2151 bacteria (pComb3XSS phagemid); also called clone C31
On to B8, for which the OD450 turned out to be 0.45.
